Test results published in patent US20240392013A1 (STELEXIS THERAPEUTICS, published 2024).

Experiments:
[1] = target: T1, IL1RAP-Fc protein (Sino Biological, Cat #10121-H02H), recombinant human IL1RAP extracellular domain Fc-tagged (human, UniProt Q9NPH3 21-367); assay: cell-free competition ELISA: IL1RAP-Fc coated, mAb titrated, blocks binding of premixed IL1R1-His/IL1β complex
T1 construct: extracellular domain; not shown: Fc tag
T1 sequence (looked up): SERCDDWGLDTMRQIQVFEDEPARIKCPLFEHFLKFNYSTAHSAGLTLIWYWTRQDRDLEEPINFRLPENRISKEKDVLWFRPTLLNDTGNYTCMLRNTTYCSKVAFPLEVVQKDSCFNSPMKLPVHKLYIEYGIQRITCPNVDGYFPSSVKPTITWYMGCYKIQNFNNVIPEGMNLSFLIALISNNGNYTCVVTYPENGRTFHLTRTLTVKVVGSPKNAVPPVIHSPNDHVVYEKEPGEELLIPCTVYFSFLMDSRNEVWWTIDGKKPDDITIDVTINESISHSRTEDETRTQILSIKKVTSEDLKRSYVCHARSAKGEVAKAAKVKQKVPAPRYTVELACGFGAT
Procedure: High-binding 96-well plates were coated with IL1RAP-Fc protein (Sino Biological, Cat #10121-H02H) at concentration of 4 µg/ml and incubated overnight at 4° C. After 3× washes with 0.05% Tween-20 in PBS, pH 7.5, plates were blocked with 1% BSA in PBS for 1 hour at room temperature. Following, wells were incubated with each antibody at concentration of 50 nM for 1 hour at room temperature. […] IL1R1/IL1β complex was preincubated in assay buffer (1% BSA in PBS, pH 7.5) for 20 min at room temperature. After 3× washes, plates were incubated with anti-His HRP detection antibody (Medna, Cat #D8212, […]) for 1 hour at room temperature. Following 5× washes, SuperPico chemiluminescent substrate was applied to wells and signal was read on Spectramax M5.

[2] = target: T2, recombinant mouse IL1RAP protein (Sino Biological, Cat #52657-M08H) (mouse, UniProt Q61730 21-359); assay: cell-free ELISA, mouse IL1RAP coated; data not shown
T2 construct: Bought protein
T2 sequence (looked up): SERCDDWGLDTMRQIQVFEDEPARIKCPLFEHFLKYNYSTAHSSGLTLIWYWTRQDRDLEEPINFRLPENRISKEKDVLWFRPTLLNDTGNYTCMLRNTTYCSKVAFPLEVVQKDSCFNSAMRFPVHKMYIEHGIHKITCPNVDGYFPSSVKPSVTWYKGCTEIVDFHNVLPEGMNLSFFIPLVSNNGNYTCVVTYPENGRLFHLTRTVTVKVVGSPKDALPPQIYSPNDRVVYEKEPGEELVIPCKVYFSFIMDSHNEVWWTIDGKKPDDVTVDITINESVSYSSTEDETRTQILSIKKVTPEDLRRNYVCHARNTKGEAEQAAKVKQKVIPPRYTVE
How it was run: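 Plates coated overnight at 4 °C with recombinant IL1RAP at 1 μg/ml in PBS pH 7.4, then blocked with 1% BSA. Antibodies incubated 1 h at room temperature from 100 nM in seven half-log dilutions. Bound antibody detected with anti-His HRP and chemiluminescence.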

[3] = target: T3, recombinant human IL1RAP protein, extracellular domain His-tagged (Sino Biological, Cat #10121-H08H) (human, UniProt Q9NPH3 21-367); assay: Octet BLI; mAb captured on anti-mouse IgG Fc sensor; huIL1RAP-His analyte
T3 construct: extracellular domain; Bought protein; The Octet analyte is printed as huIL1RAP-His (Sino Biological, lot MB08MA1301) without a catalogue number; also called huIL1RAP-His; hIL1RAP; not shown: His tag
T3 sequence (looked up): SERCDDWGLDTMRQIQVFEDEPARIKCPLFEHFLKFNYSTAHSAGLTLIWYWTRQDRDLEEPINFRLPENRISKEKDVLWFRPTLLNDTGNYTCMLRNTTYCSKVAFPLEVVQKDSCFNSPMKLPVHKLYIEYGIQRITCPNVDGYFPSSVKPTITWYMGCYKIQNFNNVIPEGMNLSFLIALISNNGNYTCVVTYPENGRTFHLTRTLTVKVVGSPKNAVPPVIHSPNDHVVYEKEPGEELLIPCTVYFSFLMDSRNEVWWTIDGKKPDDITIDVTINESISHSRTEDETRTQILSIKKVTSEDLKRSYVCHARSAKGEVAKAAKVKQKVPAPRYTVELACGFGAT
How it was run: (§1)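 Antibodies at 5 μg/ml were captured on anti-mouse IgG Fc biosensors; His-tagged human or cynomolgus IL1RAP extracellular domain served as analyte at 100, 50 and 25 nM in PBS kinetics buffer (0.1% BSA, 0.02% Tween-20). Association 120 s, dissociation 1200 s; KD (M) calculated from binding kinetics.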

[4] = target: T4, cyIL1RAP-His (Lake Pharma) (cynomolgus monkey, UniProt A0A2K5X5J5 21-367); assay: Octet BLI; mAb captured on anti-mouse IgG Fc sensor; cyIL1RAP-His analyte
T4 construct: Bought protein (Lake Pharma, lot 16205819371); also called cynomolgus IL1RAP; monkey IL1RAP; not shown: His tag
T4 sequence: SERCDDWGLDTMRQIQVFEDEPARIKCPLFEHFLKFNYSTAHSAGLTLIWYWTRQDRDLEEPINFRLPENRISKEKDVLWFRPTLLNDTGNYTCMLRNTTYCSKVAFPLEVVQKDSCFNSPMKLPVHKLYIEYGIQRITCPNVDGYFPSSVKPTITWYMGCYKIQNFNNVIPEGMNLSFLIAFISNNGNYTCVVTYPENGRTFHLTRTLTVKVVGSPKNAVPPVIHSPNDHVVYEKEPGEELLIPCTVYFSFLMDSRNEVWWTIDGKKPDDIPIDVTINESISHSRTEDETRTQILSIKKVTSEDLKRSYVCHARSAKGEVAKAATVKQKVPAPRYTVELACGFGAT
How it was run: as §1

B1: STLX2012 (antibody, V domains shown)
VH: QVQLLQSGAEVKKPGSSVKVSCKASGGTFSIYAIDWVRQAPGQGLEWMGGIIPIFGTANSAQKFQGRVTITADKSTSTAYMELSSLRSEDTAVYYCARNGATSDAFDMWGQGTMVTVSS
VL: EIVLTQSPGTLSLSPGERATLSCRASLSVSSNYLAWFQQRPGQAPRLLIHGVSRRATGIPDRFSGSGSGTDFTLTISRLEPEDFAVYYCQQYGSSPLTFGGGTKVEIK
notes: Purified from hybridoma of immunized Alivamab mice; intact IgG; captured on anti-mouse IgG Fc sensors in Octet; kappa light chain; also called 74804_12A21B
In the case of B1, the IC50 [1] is reported as 0.824 nM, the binding result [2] is reported as “no binding (tested: 100 nM)” and the Kd [3] is reported as 0.934 nM. For the same binder, the Response [3] was 0.303, the koff [3] was 0.000287 s⁻¹ and the kon [3] was 308000 M⁻¹ s⁻¹. For the same binder, the Kd [4] was 1.29 nM, the Response [4] was 0.328 and the koff [4] was 0.000441 s⁻¹. It also gave a kon [4] of 342000 M⁻¹ s⁻¹.

B2: STLX2043 (antibody, V domains shown)
VH: QVQLLQSGAEVKKPGSSVKVSCKASGGTFSIYAIDWVRQAPGQGLEWMGGIIPIFGTENSAQNFQGRITITADKSTNTAYMELSSLRSEDTAVYYCARNGATSDAFDIWGQGTMVTVFS
VL: EIVLTQSPGTLSLSPGERATLSCRASLSVSSNYLAWFQQRPGQAPRLLIYGVSRRATGIPDRFSGSGSGTDFTLTISRLEPEDFAVYYCQQYGSSPLTFGGGTKVEIK
notes: Purified from hybridoma of immunized Alivamab mice; intact IgG; captured on anti-mouse IgG Fc sensors in Octet; kappa light chain; also called 74804_43F04A
With B2 the IC50 [1] was 0.804 nM, the binding result [2] was “no binding (tested: 100 nM)” and the Kd [3] was 0.425 nM. The Response [3] was 0.251, the koff [3] was 0.000149 s⁻¹ and the kon [3] was 350000 M⁻¹ s⁻¹. For the same binder, the Kd [4] was 0.97 nM, the Response [4] was 0.286 and the koff [4] was 0.0004 s⁻¹. It also gave a kon [4] of 412000 M⁻¹ s⁻¹.
